We go through 1 molecule from publication PMC3351163.

The data set addresses TetR(B) (UniProt P04483 1-207). The data set is described as follows: cytometric bead binding assay.

Sequence of TetR(B) (P04483 whole entry): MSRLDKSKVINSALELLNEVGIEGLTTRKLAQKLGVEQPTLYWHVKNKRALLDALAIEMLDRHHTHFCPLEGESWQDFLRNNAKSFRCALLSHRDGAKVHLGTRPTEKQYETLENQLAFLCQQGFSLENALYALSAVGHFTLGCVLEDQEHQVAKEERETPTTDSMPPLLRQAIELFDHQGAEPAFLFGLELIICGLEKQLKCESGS

B1: 5-1.2m2 (structured_RNA)
RNA: GGAUCCAGGCAGUGUAAGGUCGAUACGGACGGAAUGUGAUGGCCUGGAUCCAAA
Take B1: the binding result is reported as “no binding”.
